What all share (assay): EMSA
Background: Mobility shift assays separate free from complexed probe on a gel.

In series [1] the target is Ikaros zinc fingers 1-4 (F1-F4) (UniProt Q03267 117-223).
The target in series [2] is Ikaros zinc fingers 2-4 (F2-F4) (UniProt Q03267 144-223).
For series [3], the target named is Ikaros zinc fingers 1-3 (F1-F3) (UniProt Q03267 117-194).
Chain of Ikaros zinc fingers 1-3 (F1-F3) (Q03267 117-194): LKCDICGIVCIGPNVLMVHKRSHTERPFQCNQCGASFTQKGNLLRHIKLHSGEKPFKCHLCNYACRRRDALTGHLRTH

Chain of Ikaros zinc fingers 2-4 (F2-F4) (Q03267 144-223): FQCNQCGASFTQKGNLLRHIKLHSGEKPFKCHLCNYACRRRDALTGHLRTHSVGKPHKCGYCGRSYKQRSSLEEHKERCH
Chain of Ikaros zinc fingers 1-4 (F1-F4) (Q03267 117-223): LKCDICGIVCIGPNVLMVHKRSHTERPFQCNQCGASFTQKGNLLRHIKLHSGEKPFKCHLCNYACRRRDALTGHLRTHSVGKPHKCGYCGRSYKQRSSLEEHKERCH

B1: Snx25_A (dsDNA)
DNA 1: TCAGAAAAAGGGAAAAGGGTCAC
DNA 2: GTGACCCTTTTCCCTTTTTCTGA
Take B1: the binding result in series [1] is listed as “binds”; in series [2], “binds”; in series [3], “no binding”.

B2: Snx29_Right (dsDNA)
DNA 1: TCAGACACTGAGAATACTGTCAC
DNA 2: GTGACAGTATTCTCAGTGTCTGA
Take B2: the binding result in series [1], in series [2] and in series [3] was “no binding” in each case.

B3: Snx29_Left (dsDNA)
DNA 1: TCAGATACTGGGAACACTGTCAC
DNA 2: GTGACAGTGTTCCCAGTATCTGA
For the molecule B3, the binding result in series [1], in series [2] and in series [3] was “binds” throughout.

The record behind these values is publication PMC3800053.
